In PMC9482650, “Quantitative fragmentomics allow affinity mapping of interactomes” (Nature Communications, 2022):

How the values were obtained:
Test in all cases: holdup assay
Design in all cases: key: below the threshold = too weak to quantify, mostly under pKd 3.1 to 4
AHNAK1, Q09666 = biological target: AHNAK1, Q09666
APBA3_1, O96018 = biological target: T1, APBA3_1, O96018
T1 sequence (O96018 389-490, limits assumed, looked up): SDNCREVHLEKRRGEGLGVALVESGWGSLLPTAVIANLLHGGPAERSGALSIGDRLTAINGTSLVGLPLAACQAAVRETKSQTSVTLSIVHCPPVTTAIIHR

DLG3_3, Q92796 = biological target: T2, DLG3_3, Q92796
T2 sequence (Q92796 374-475, limits assumed, looked up): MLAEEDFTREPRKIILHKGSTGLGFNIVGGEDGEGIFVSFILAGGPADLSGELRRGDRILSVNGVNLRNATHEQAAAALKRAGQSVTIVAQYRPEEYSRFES

DLG4_3, P78352 = biological target: DLG4_3, P78352
DLG5_1, Q8TDM6 = biological target: DLG5_1, Q8TDM6
FRMPD2_3, Q68DX3 = biological target: FRMPD2_3, Q68DX3
FRMPD4, Q14CM0 = biological target: FRMPD4, Q14CM0
GIPC2, Q8TF65 = biological target: GIPC2, Q8TF65
GORASP1, Q9BQQ3 = biological target: GORASP1, Q9BQQ3
GRID2IP_2, A4D2P6 = biological target: GRID2IP_2, A4D2P6
IL16_3, Q14005 = biological target: IL16_3, Q14005
Inadl_1, Q8NI35 = biological target: Inadl_1, Q8NI35
Inadl_4, Q8NI35 = biological target: Inadl_4, Q8NI35
Inadl_5, Q8NI35 = biological target: Inadl_5, Q8NI35
Inadl_9, Q8NI35 = biological target: Inadl_9, Q8NI35
LIMK2, P53671 = biological target: LIMK2, P53671
LNX1_3, Q8TBB1 = biological target: LNX1_3, Q8TBB1
LNX2_3, Q8N448 = biological target: T3, LNX2_3, Q8N448
T3 sequence (Q8N448 463-564, limits assumed, looked up): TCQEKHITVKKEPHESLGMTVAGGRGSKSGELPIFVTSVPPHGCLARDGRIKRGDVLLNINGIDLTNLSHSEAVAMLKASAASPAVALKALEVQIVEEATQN

LRRC7, Q96NW7 = biological target: T4, LRRC7, Q96NW7
T4 sequence (Q96NW7 1440-1537, limits assumed, looked up): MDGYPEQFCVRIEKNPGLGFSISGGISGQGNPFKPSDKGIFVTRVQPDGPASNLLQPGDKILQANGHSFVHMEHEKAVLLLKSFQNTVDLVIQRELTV

MAGI1_2, Q96QZ7 = biological target: MAGI1_2, Q96QZ7
NHERF3_4, Q5T2W1 = biological target: T5, NHERF3_4, Q5T2W1
T5 sequence (Q5T2W1 373-468, limits assumed, looked up): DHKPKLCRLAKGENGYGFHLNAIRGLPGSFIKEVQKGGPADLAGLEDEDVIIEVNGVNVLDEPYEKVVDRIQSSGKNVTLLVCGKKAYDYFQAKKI

NHERF4_4, Q86UT5 = biological target: NHERF4_4, Q86UT5
NOS1, P29475 = biological target: NOS1, P29475
PDZD2_2, O15018 = biological target: T6, PDZD2_2, O15018
T6 sequence (O15018 329-429, limits assumed, looked up): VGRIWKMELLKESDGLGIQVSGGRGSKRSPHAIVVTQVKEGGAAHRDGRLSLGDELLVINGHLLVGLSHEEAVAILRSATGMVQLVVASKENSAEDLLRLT

PDZRN3_1, Q9UPQ7 = biological target: T7, PDZRN3_1, Q9UPQ7
T7 sequence (Q9UPQ7 244-349, limits assumed, looked up): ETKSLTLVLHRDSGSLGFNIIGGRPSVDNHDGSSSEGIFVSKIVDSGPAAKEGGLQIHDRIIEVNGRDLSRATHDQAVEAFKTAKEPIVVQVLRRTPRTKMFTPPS

SHANK1, Q9Y566 = biological target: T8, SHANK1, Q9Y566
T8 sequence (Q9Y566 658-767, limits assumed, looked up): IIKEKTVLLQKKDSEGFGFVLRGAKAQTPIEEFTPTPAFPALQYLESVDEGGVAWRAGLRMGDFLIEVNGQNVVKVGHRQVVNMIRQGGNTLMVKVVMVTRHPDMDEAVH

SIPA1L2, Q9P2F8 = biological target: T9, SIPA1L2, Q9P2F8
T9 sequence (Q9P2F8 945-1036, limits assumed, looked up): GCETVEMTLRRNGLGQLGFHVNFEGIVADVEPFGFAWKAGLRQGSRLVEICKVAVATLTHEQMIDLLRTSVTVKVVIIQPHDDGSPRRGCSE

SNX27, Q96L92 = biological target: SNX27, Q96L92
TJP1_3, Q07157 = biological target: TJP1_3, Q07157
[1] = modified: phospho on S at position -3 from the C-terminal residue
[2] = plain residues with an end cap or a label only (N-terminal biotin on a linker: ado-ado)

Sequence of FRMPD2_3, Q68DX3 (Q68DX3 1073-1166): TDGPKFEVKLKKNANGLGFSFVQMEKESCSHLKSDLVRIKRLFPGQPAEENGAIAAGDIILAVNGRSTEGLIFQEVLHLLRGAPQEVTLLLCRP
Sequence of AHNAK1, Q09666 (Q09666 4-100): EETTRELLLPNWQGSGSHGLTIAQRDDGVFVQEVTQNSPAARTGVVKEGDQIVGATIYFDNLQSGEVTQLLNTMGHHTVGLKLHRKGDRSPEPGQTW
Sequence of DLG4_3, P78352 (P78352 306-403): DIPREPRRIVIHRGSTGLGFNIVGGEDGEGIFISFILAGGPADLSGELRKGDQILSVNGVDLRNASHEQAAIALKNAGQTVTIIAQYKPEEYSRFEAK
Sequence of NHERF4_4, Q86UT5 (Q86UT5 464-550): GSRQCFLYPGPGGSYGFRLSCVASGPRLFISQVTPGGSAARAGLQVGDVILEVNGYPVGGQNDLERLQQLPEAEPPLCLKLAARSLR
Sequence of Inadl_4, Q8NI35 (Q8NI35 547-651): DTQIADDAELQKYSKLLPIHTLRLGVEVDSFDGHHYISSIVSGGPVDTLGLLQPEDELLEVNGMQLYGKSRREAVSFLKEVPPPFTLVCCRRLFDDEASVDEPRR
Sequence of GRID2IP_2, A4D2P6 (A4D2P6 272-370): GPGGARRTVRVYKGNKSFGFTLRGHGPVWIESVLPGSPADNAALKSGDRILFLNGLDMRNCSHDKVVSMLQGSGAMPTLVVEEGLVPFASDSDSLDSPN
Sequence of GIPC2, Q8TF65 (Q8TF65 112-203): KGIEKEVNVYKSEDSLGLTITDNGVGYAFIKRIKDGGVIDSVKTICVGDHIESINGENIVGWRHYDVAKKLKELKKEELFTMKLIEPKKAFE
Sequence of Inadl_1, Q8NI35 (Q8NI35 113-229): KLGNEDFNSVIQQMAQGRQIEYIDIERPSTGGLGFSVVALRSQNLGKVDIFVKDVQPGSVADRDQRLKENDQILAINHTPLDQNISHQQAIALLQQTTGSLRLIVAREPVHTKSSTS
Sequence of NOS1, P29475 (P29475 9-101): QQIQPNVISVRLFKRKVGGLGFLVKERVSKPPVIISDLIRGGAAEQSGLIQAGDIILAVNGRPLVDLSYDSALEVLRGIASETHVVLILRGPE
Sequence of Inadl_9, Q8NI35 (Q8NI35 1530-1615): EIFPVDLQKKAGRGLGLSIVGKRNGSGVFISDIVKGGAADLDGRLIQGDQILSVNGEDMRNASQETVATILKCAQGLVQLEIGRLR
Sequence of LNX1_3, Q8TBB1 (Q8TBB1 500-596): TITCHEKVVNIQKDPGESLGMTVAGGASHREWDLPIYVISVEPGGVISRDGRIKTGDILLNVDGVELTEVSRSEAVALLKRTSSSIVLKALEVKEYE
Sequence of GORASP1, Q9BQQ3 (Q9BQQ3 1-208): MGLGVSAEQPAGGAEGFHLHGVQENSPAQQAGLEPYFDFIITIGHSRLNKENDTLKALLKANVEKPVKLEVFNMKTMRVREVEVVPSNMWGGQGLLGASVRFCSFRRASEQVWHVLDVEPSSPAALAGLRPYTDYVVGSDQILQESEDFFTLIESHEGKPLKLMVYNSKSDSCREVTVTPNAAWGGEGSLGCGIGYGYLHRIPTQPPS
Sequence of DLG5_1, Q8TDM6 (Q8TDM6 617-713): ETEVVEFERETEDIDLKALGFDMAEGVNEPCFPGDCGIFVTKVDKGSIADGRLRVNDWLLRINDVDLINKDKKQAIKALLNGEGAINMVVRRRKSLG
Sequence of FRMPD4, Q14CM0 (Q14CM0 67-160): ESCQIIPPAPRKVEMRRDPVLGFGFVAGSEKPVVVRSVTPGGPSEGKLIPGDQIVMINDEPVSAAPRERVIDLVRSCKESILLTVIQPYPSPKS
Sequence of TJP1_3, Q07157 (Q07157 416-512): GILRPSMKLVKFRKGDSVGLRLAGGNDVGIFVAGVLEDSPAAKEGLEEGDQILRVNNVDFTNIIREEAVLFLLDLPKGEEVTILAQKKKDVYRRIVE
Sequence of LIMK2, P53671 (P53671 143-248): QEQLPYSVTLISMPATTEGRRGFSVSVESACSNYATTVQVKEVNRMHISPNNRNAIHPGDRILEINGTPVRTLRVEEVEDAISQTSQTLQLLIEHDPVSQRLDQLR
Sequence of IL16_3, Q14005 (Q14005 1107-1207): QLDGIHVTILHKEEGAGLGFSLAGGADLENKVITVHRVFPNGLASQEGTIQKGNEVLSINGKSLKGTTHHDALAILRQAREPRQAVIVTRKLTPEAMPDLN
Sequence of MAGI1_2, Q96QZ7 (Q96QZ7 456-580): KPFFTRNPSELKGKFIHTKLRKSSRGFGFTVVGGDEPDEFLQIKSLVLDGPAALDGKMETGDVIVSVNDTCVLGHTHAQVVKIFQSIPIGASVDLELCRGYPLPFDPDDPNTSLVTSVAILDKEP
Sequence of Inadl_5, Q8NI35 (Q8NI35 673-780): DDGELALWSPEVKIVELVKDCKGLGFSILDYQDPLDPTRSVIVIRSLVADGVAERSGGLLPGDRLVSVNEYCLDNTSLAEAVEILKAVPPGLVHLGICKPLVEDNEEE

Binder: RRVRKLPSTTL [RPS6KA1_-3P, Q15418]
- pKd (AHNAK1, Q09666; [1]): below the threshold
- pKd (APBA3_1, O96018; [1]): below the threshold
- pKd (DLG3_3, Q92796; [1]): below the threshold
- pKd (DLG4_3, P78352; [1]): below the threshold
- pKd (DLG5_1, Q8TDM6; [1]): below the threshold
- pKd (FRMPD2_3, Q68DX3; [1]): below the threshold
- pKd (FRMPD4, Q14CM0; [1]): 3.73
- pKd (GIPC2, Q8TF65; [1]): below the threshold
- pKd (GORASP1, Q9BQQ3; [1]): below the threshold
- pKd (GRID2IP_2, A4D2P6; [1]): below the threshold
- pKd (IL16_3, Q14005; [1]): below the threshold
- pKd (Inadl_1, Q8NI35; [1]): 3.66
- pKd (Inadl_4, Q8NI35; [1]): below the threshold
- pKd (Inadl_5, Q8NI35; [1]): below the threshold
- pKd (Inadl_9, Q8NI35; [1]): below the threshold
- pKd (LIMK2, P53671; [1]): below the threshold
- pKd (LNX1_3, Q8TBB1; [1]): below the threshold
- pKd (LNX2_3, Q8N448; [1]): below the threshold
- pKd (LRRC7, Q96NW7; [1]): below the threshold
- pKd (MAGI1_2, Q96QZ7; [1]): below the threshold
- pKd (NHERF3_4, Q5T2W1; [1]): below the threshold
- pKd (NHERF4_4, Q86UT5; [1]): below the threshold
- pKd (NOS1, P29475; [1]): below the threshold
- pKd (PDZD2_2, O15018; [1]): below the threshold
- pKd (PDZRN3_1, Q9UPQ7; [1]): below the threshold
- pKd (SHANK1, Q9Y566; [1]): below the threshold
- pKd (SIPA1L2, Q9P2F8; [1]): below the threshold
- pKd (SNX27, Q96L92; [1]): 4.1
- pKd (TJP1_3, Q07157; [1]): below the threshold

Binder: LETREPTNTL [GRIP1, Q9Y3R0]
- pKd (AHNAK1, Q09666; [2]): below the threshold
- pKd (APBA3_1, O96018; [2]): below the threshold
- pKd (DLG3_3, Q92796; [2]): below the threshold
- pKd (DLG4_3, P78352; [2]): below the threshold
- pKd (DLG5_1, Q8TDM6; [2]): below the threshold
- pKd (FRMPD2_3, Q68DX3; [2]): below the threshold
- pKd (FRMPD4, Q14CM0; [2]): below the threshold
- pKd (GIPC2, Q8TF65; [2]): below the threshold
- pKd (GORASP1, Q9BQQ3; [2]): below the threshold
- pKd (GRID2IP_2, A4D2P6; [2]): below the threshold
- pKd (IL16_3, Q14005; [2]): below the threshold
- pKd (Inadl_1, Q8NI35; [2]): below the threshold
- pKd (Inadl_4, Q8NI35; [2]): below the threshold
- pKd (Inadl_5, Q8NI35; [2]): below the threshold
- pKd (Inadl_9, Q8NI35; [2]): below the threshold
- pKd (LIMK2, P53671; [2]): below the threshold
- pKd (LNX1_3, Q8TBB1; [2]): below the threshold
- pKd (LNX2_3, Q8N448; [2]): below the threshold
- pKd (LRRC7, Q96NW7; [2]): below the threshold
- pKd (MAGI1_2, Q96QZ7; [2]): below the threshold
- pKd (NHERF3_4, Q5T2W1; [2]): below the threshold
- pKd (NHERF4_4, Q86UT5; [2]): below the threshold
- pKd (NOS1, P29475; [2]): below the threshold
- pKd (PDZD2_2, O15018; [2]): below the threshold
- pKd (PDZRN3_1, Q9UPQ7; [2]): below the threshold
- pKd (SHANK1, Q9Y566; [2]): below the threshold
- pKd (SIPA1L2, Q9P2F8; [2]): below the threshold
- pKd (SNX27, Q96L92; [2]): below the threshold
- pKd (TJP1_3, Q07157; [2]): below the threshold

Binder: FEEEAEEEVA [TUBB4B, P68371]
- pKd (AHNAK1, Q09666; [2]): below the threshold
- pKd (APBA3_1, O96018; [2]): below the threshold
- pKd (DLG3_3, Q92796; [2]): below the threshold
- pKd (DLG4_3, P78352; [2]): below the threshold
- pKd (DLG5_1, Q8TDM6; [2]): below the threshold
- pKd (FRMPD2_3, Q68DX3; [2]): below the threshold
- pKd (FRMPD4, Q14CM0; [2]): below the threshold
- pKd (GIPC2, Q8TF65; [2]): below the threshold
- pKd (GORASP1, Q9BQQ3; [2]): below the threshold
- pKd (GRID2IP_2, A4D2P6; [2]): below the threshold
- pKd (IL16_3, Q14005; [2]): below the threshold
- pKd (Inadl_1, Q8NI35; [2]): below the threshold
- pKd (Inadl_4, Q8NI35; [2]): below the threshold
- pKd (Inadl_5, Q8NI35; [2]): below the threshold
- pKd (Inadl_9, Q8NI35; [2]): below the threshold
- pKd (LIMK2, P53671; [2]): below the threshold
- pKd (LNX1_3, Q8TBB1; [2]): below the threshold
- pKd (LNX2_3, Q8N448; [2]): below the threshold
- pKd (LRRC7, Q96NW7; [2]): below the threshold
- pKd (MAGI1_2, Q96QZ7; [2]): below the threshold
- pKd (NHERF3_4, Q5T2W1; [2]): below the threshold
- pKd (NHERF4_4, Q86UT5; [2]): below the threshold
- pKd (NOS1, P29475; [2]): below the threshold
- pKd (PDZD2_2, O15018; [2]): below the threshold
- pKd (PDZRN3_1, Q9UPQ7; [2]): below the threshold
- pKd (SHANK1, Q9Y566; [2]): below the threshold
- pKd (SIPA1L2, Q9P2F8; [2]): below the threshold
- pKd (SNX27, Q96L92; [2]): below the threshold
- pKd (TJP1_3, Q07157; [2]): below the threshold
